From patent US20220040297A1 (Chugai, published 2022)
Changes are numbered by the printed parent chain. Numbers in names are those of the source.

B1: CE115HA000 N54S (antibody, name in Kabat numbering, V domains shown)
VH: QVQLVESGGGVVQPGRSLRLSCAASGFTFSNAWMHWVRQAPGKGLEWVAQIKAKSNSYATYYAESVKGRFTISRDDSKNSLYLQMNSLKTEDTAVYYCRYVHYGAYYGVDAWGQGTTVTVSS
VL: DIVMTQSPLSLPVTPGEPASISCRSSQSLVHSNRNTYLHWYQQKPGQAPRLLIYKVSNRFSGVPDRFSGSGSGTDFTLKISRVEAEDVGVYYCGQGTQVPYTFGQGTKLEIK
B2: CE115HA000 S52cA (antibody, name in Kabat numbering, V domains shown)
VH: B1 VH with S55A, S57N
VL: B1 VL
B3: CE115HA000 S52cV (antibody, name in Kabat numbering, V domains shown)
VH: B1 VH with S55V, S57N
VL: B1 VL
B4: CE115HA000 S30G (antibody, name in Kabat numbering, V domains shown)
VH: B1 VH with S30G, S57N
VL: B1 VL
B5: CE115HA000 W33H (antibody, name in Kabat numbering, V domains shown)
VH: B1 VH with W33H, S57N
VL: B1 VL
B6: CE115HA000 T28D (antibody, name in Kabat numbering, V domains shown)
VH: B1 VH with T28D, S57N
VL: B1 VL
B7: CE115HA000 W33L (antibody, name in Kabat numbering, V domains shown)
VH: B1 VH with W33L, S57N
VL: B1 VL
B8: CE115HA000 S62P (antibody, name in Kabat numbering, V domains shown)
VH: B1 VH with S57N, S65P
VL: B1 VL
B9: CE115HA000 S62E (antibody, name in Kabat numbering, V domains shown)
VH: B1 VH with S57N, S65E
VL: B1 VL
B10: CE115HA000 T28S (antibody, name in Kabat numbering, V domains shown)
VH: B1 VH with T28S, S57N
VL: B1 VL
B11: CE115HA000 S52cG (antibody, name in Kabat numbering, V domains shown)
VH: B1 VH with S55G, S57N
VL: B1 VL
B12: CE115HA000 V100cP (antibody, name in Kabat numbering, V domains shown)
VH: B1 VH with S57N, V109P
VL: B1 VL
B13: CE115HA000 S52cK (antibody, name in Kabat numbering, V domains shown)
VH: B1 VH with S55K, S57N
VL: B1 VL
B14: CE115HA000 R16E (antibody, name in Kabat numbering, V domains shown)
VH: B1 VH with R16E, S57N
VL: B1 VL
B15: CE115HA000 S52cL (antibody, name in Kabat numbering, V domains shown)
VH: B1 VH with S55L, S57N
VL: B1 VL
B16: CE115HA000 W33D (antibody, name in Kabat numbering, V domains shown)
VH: B1 VH with W33D, S57N
VL: B1 VL
B17: CE115HA000 R19T (antibody, name in Kabat numbering, V domains shown)
VH: B1 VH with R19T, S57N
VL: B1 VL
B18: CE115HA000 S77T (antibody, name in Kabat numbering, V domains shown)
VH: B1 VH with S57N, S80T
VL: B1 VL
B19: CE115HA000 Q50A (antibody, name in Kabat numbering, V domains shown)
VH: B1 VH with Q50A, S57N
VL: B1 VL
B20: CE115HA000 T57I (antibody, name in Kabat numbering, V domains shown)
VH: B1 VH with S57N, T60I
VL: B1 VL
B21: CE115HA000 T57N (antibody, name in Kabat numbering, V domains shown)
VH: B1 VH with S57N, T60N
VL: B1 VL
B22: CE115HA000 S52cF (antibody, name in Kabat numbering, V domains shown)
VH: B1 VH with S55F, S57N
VL: B1 VL
B23: CE115HA000 T57A (antibody, name in Kabat numbering, V domains shown)
VH: B1 VH with S57N, T60A
VL: B1 VL
B24: CE115HA000 S52cD (antibody, name in Kabat numbering, V domains shown)
VH: B1 VH with S55D, S57N
VL: B1 VL
B25: CE115HA000 S52cQ (antibody, name in Kabat numbering, V domains shown)
VH: B1 VH with S55Q, S57N
VL: B1 VL
B26: CE115HA000 S62D (antibody, name in Kabat numbering, V domains shown)
VH: B1 VH with S57N, S65D
VL: B1 VL
B27: CE115HA000 V95S (antibody, name in Kabat numbering, V domains shown)
VH: B1 VH with S57N, V101S
VL: B1 VL
B28: CE115HA000 Q50E (antibody, name in Kabat numbering, V domains shown)
VH: B1 VH with Q50E, S57N
VL: B1 VL
B29: CE115HA000 Q50L (antibody, name in Kabat numbering, V domains shown)
VH: B1 VH with Q50L, S57N
VL: B1 VL
B30: CE115HA000 Q105E (antibody, name in Kabat numbering, V domains shown)
VH: B1 VH with S57N, Q114E
VL: B1 VL
B31: CE115HA000 Q50Y (antibody, name in Kabat numbering, V domains shown)
VH: B1 VH with Q50Y, S57N
VL: B1 VL
B32: CE115HA000 S30D (antibody, name in Kabat numbering, V domains shown)
VH: B1 VH with S30D, S57N
VL: B1 VL
B33: CE115HA000 V95D (antibody, name in Kabat numbering, V domains shown)
VH: B1 VH with S57N, V101D
VL: B1 VL
B34: CE115HA000 Q50K (antibody, name in Kabat numbering, V domains shown)
VH: B1 VH with Q50K, S57N
VL: B1 VL
B35: CE115HA000 W33A (antibody, name in Kabat numbering, V domains shown)
VH: B1 VH with W33A, S57N
VL: B1 VL
B36: CE115HA000 T57K (antibody, name in Kabat numbering, V domains shown)
VH: B1 VH with S57N, T60K
VL: B1 VL
B37: CE115HA000 V100cA (antibody, name in Kabat numbering, V domains shown)
VH: B1 VH with S57N, V109A
VL: B1 VL
B38: CE115HA000 S62K (antibody, name in Kabat numbering, V domains shown)
VH: B1 VH with S57N, S65K
VL: B1 VL
B39: CE115HA000 Q50I (antibody, name in Kabat numbering, V domains shown)
VH: B1 VH with Q50I, S57N
VL: B1 VL
B40: CE115HA000 R16Q (antibody, name in Kabat numbering, V domains shown)
VH: B1 VH with R16Q, S57N
VL: B1 VL
B41: CE115HA000 V11L (antibody, name in Kabat numbering, V domains shown)
VH: B1 VH with V11L, S57N
VL: B1 VL
B42: CE115HA000 Q50D (antibody, name in Kabat numbering, V domains shown)
VH: B1 VH with Q50D, S57N
VL: B1 VL
B43: CE115HA000 W33F (antibody, name in Kabat numbering, V domains shown)
VH: B1 VH with W33F, S57N
VL: B1 VL
B44: CE115HA000 Q50S (antibody, name in Kabat numbering, V domains shown)
VH: B1 VH with Q50S, S57N
VL: B1 VL
B45: CE115HA000 S74P (antibody, name in Kabat numbering, V domains shown)
VH: B1 VH with S57N, S77P
VL: B1 VL

What follows are binders tested against T1, CD3ε homodimer protein (human, UniProt P07766 23-126, limits assumed, sulfo-tag or biotin label in some ECL assays) (assay: SPR, CD3ε homodimer on chip;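 also: biacore SPR with antibody variants flowed as analyte over amine-coupled CD3ε homodimer on a CM chip, bound amount of each single-residue H chain variant over that of parent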).
T1 construct: also called human CD3ε homodimer protein; CD3 (CD3ε)
T1 sequence (P07766 23-126 limits assumed): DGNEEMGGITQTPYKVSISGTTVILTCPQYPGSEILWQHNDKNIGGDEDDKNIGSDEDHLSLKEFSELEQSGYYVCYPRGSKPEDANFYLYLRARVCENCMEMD

Row | ratio of amounts bound vs CE115HA000 | Binder
1 | 0.84 | B1
2 | 0.96 | B2
3 | 0.93 | B3
4 | 1.01 | B4
5 | 0.13 | B5
6 | 0.56 | B6
7 | 0.1 | B7
8 | 1 | B8
9 | 0.92 | B9
10 | 0.91 | B10
11 | 0.97 | B11
12 | 0.8 | B12
13 | 1.19 | B13
14 | 0.88 | B14
15 | 0.98 | B15
16 | 0.1 | B16
17 | 0.8 | B17
18 | 0.9 | B18
19 | 0.24 | B19
20 | 0.61 | B20
21 | 0.97 | B21
22 | 1.13 | B22
23 | 0.98 | B23

Row | ratio of amounts bound vs CE115HA000 | Binder
24 | 0.6 | B24
25 | 1.04 | B25
26 | 0.92 | B26
27 | 0.22 | B27
28 | 0.26 | B28
29 | 0.23 | B29
30 | 0.94 | B30
31 | 0.25 | B31
32 | 0.86 | B32
33 | 0.24 | B33
34 | 0.33 | B34
35 | 0.1 | B35
36 | 1.32 | B36
37 | 0.48 | B37
38 | 1.19 | B38
39 | 0.4 | B39
40 | 0.9 | B40
41 | 1 | B41
42 | 0.27 | B42
43 | 0.65 | B43
44 | 0.24 | B44
45 | 0.91 | B45
